In patent publication US20140087995A1 (published 2014):
Numbered stars: 1 amine (or outer) side, 2 acyl side, 3 side chain; on linkers, the order of the positions; unused ones are H or OH. Bridge positions count the residues as written; N and C are the ends. Side chains are listed from the residue outwards. Ends that are not written are not given here. * marks the point of attachment. C20 diacid = O=C(O)CCCCCCCCCCCCCCCCCCC(=O)*; γGlu = O=C(O)[C@H](CCC(=O)[*:2])N[*:1]

T1: human amylin receptor (amylin 3(a) receptor: human calcitonin receptor plus RAMP-3) (human, UniProt P30988 25-474; O60896 24-148)
T1 construct: whole, on cells; functional assay (II)a used the whole cells; also called hAmylin-R; hAmylinR
T1 sequence (looked up) 1: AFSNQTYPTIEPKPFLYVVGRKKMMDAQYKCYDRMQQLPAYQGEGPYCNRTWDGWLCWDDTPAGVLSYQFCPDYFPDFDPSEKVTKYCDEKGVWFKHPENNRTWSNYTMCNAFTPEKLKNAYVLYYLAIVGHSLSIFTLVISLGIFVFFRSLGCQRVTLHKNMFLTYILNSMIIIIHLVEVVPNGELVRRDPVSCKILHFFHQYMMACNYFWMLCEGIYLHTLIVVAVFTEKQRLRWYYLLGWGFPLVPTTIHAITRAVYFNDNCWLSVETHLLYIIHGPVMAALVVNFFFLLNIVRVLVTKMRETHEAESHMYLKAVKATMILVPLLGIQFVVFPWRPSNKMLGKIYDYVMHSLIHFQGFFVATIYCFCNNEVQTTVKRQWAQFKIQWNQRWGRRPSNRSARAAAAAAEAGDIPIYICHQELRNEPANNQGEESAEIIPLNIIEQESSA
T1 sequence (looked up) 2: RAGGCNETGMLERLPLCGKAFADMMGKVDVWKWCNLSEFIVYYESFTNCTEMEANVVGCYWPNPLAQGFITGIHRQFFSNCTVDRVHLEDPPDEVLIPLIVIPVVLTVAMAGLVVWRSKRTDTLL

T2: human calcitonin receptor (human, UniProt P30988 25-474)
T2 sequence (looked up): T1 sequence (looked up) 1

B1: N^ε-[(4S)-4-carboxy-4-(19-carboxynonadecanoylamino)butanoyl]Lys[Arg1,Arg17,Pro21,Pro27,His35]-h-amylin (peptide)
peptide: K([γGlu-C20 diacid])RCNTATCATQRLANFLRHSSPNFGAIPSSTNVGSHTY-NH2
modifications: disulfide 3-8; N-terminus assumed
SMILES: CC[C@H](C)[C@H](NC(=O)[C@H](C)NC(=O)CNC(=O)[C@H](Cc1ccccc1)NC(=O)[C@H](CC(N)=O)NC(=O)[C@@H]1CCCN1C(=O)[C@H](CO)NC(=O)[C@H](CO)NC(=O)[C@H](Cc1c[nH]cn1)NC(=O)[C@H](CCCNC(=N)N)NC(=O)[C@H](CC(C)C)NC(=O)[C@H](Cc1ccccc1)NC(=O)[C@H](CC(N)=O)NC(=O)[C@H](C)NC(=O)[C@H](CC(C)C)NC(=O)[C@H](CCCNC(=N)N)NC(=O)[C@H](CCC(N)=O)NC(=O)[C@@H](NC(=O)[C@H](C)NC(=O)[C@@H]1CSSC[C@H](NC(=O)[C@H](CCCNC(=N)N)NC(=O)[C@@H](N)CCCCNC(=O)CC[C@H](NC(=O)CCCCCCCCCCCCCCCCCCC(=O)O)C(=O)O)C(=O)N[C@@H](CC(N)=O)C(=O)N[C@@H]([C@@H](C)O)C(=O)N[C@@H](C)C(=O)N[C@@H]([C@@H](C)O)C(=O)N1)[C@@H](C)O)C(=O)N1CCC[C@H]1C(=O)N[C@@H](CO)C(=O)N[C@@H](CO)C(=O)N[C@H](C(=O)N[C@@H](CC(N)=O)C(=O)N[C@H](C(=O)NCC(=O)N[C@@H](CO)C(=O)N[C@@H](Cc1c[nH]cn1)C(=O)N[C@H](C(=O)N[C@@H](Cc1ccc(O)cc1)C(N)=O)[C@@H](C)O)C(C)C)[C@@H](C)O
notes: also called compound 44
B2: N^-1-[(4S)-4-carboxy-4-(19-carboxynonadecanoylamino)butanoyl]-Gly[Arg1,Arg17,Pro21,Pro27,His35]-h-amylin (peptide)
peptide: {C20 diacid-γGlu}-GRCNTATCATQRLANFLRHSSPNFGAIPSSTNVGSHTY-NH2
modifications: disulfide 3-8
SMILES: CC[C@H](C)[C@H](NC(=O)[C@H](C)NC(=O)CNC(=O)[C@H](Cc1ccccc1)NC(=O)[C@H](CC(N)=O)NC(=O)[C@@H]1CCCN1C(=O)[C@H](CO)NC(=O)[C@H](CO)NC(=O)[C@H](Cc1c[nH]cn1)NC(=O)[C@H](CCCNC(=N)N)NC(=O)[C@H](CC(C)C)NC(=O)[C@H](Cc1ccccc1)NC(=O)[C@H](CC(N)=O)NC(=O)[C@H](C)NC(=O)[C@H](CC(C)C)NC(=O)[C@H](CCCNC(=N)N)NC(=O)[C@H](CCC(N)=O)NC(=O)[C@@H](NC(=O)[C@H](C)NC(=O)[C@@H]1CSSC[C@H](NC(=O)[C@H](CCCNC(=N)N)NC(=O)CNC(=O)CC[C@H](NC(=O)CCCCCCCCCCCCCCCCCCC(=O)O)C(=O)O)C(=O)N[C@@H](CC(N)=O)C(=O)N[C@@H]([C@@H](C)O)C(=O)N[C@@H](C)C(=O)N[C@@H]([C@@H](C)O)C(=O)N1)[C@@H](C)O)C(=O)N1CCC[C@H]1C(=O)N[C@@H](CO)C(=O)N[C@@H](CO)C(=O)N[C@H](C(=O)N[C@@H](CC(N)=O)C(=O)N[C@H](C(=O)NCC(=O)N[C@@H](CO)C(=O)N[C@@H](Cc1c[nH]cn1)C(=O)N[C@H](C(=O)N[C@@H](Cc1ccc(O)cc1)C(N)=O)[C@@H](C)O)C(C)C)[C@@H](C)O
notes: also called compound 47
B3: N^ε1-[(4S)-4-carboxy-4-[[(4S)-4-carboxy-4-(19-carboxynonadecanoylamino)butanoyl]amino]butanoyl]-[Glu14,Arg17,Pro21,Pro27,Pro34,Glu35]-h-amylin (peptide)
peptide: K([γGlu-γGlu-C20 diacid])CNTATCATQRLAEFLRHSSPNFGAIPSSTNVGPETY-NH2
modifications: disulfide 2-7; N-terminus assumed
SMILES: CC[C@H](C)[C@H](NC(=O)[C@H](C)NC(=O)CNC(=O)[C@H](Cc1ccccc1)NC(=O)[C@H](CC(N)=O)NC(=O)[C@@H]1CCCN1C(=O)[C@H](CO)NC(=O)[C@H](CO)NC(=O)[C@H](Cc1c[nH]cn1)NC(=O)[C@H](CCCNC(=N)N)NC(=O)[C@H](CC(C)C)NC(=O)[C@H](Cc1ccccc1)NC(=O)[C@H](CCC(=O)O)NC(=O)[C@H](C)NC(=O)[C@H](CC(C)C)NC(=O)[C@H](CCCNC(=N)N)NC(=O)[C@H](CCC(N)=O)NC(=O)[C@@H](NC(=O)[C@H](C)NC(=O)[C@@H]1CSSC[C@H](NC(=O)[C@@H](N)CCCCNC(=O)CC[C@H](NC(=O)CC[C@H](NC(=O)CCCCCCCCCCCCCCCCCCC(=O)O)C(=O)O)C(=O)O)C(=O)N[C@@H](CC(N)=O)C(=O)N[C@@H]([C@@H](C)O)C(=O)N[C@@H](C)C(=O)N[C@@H]([C@@H](C)O)C(=O)N1)[C@@H](C)O)C(=O)N1CCC[C@H]1C(=O)N[C@@H](CO)C(=O)N[C@@H](CO)C(=O)N[C@H](C(=O)N[C@@H](CC(N)=O)C(=O)N[C@H](C(=O)NCC(=O)N1CCC[C@H]1C(=O)N[C@@H](CCC(=O)O)C(=O)N[C@H](C(=O)N[C@@H](Cc1ccc(O)cc1)C(N)=O)[C@@H](C)O)C(C)C)[C@@H](C)O
B4: N^ε1-[(4S)-4-carboxy-4-[[(4S)-4-carboxy-4-(19-carboxynonadecanoylamino)butanoyl]amino]butanoyl]-[Ser14,Arg17,Pro21,Pro27,Pro34,Glu35]-h-amylin (peptide)
peptide: K([γGlu-γGlu-C20 diacid])CNTATCATQRLASFLRHSSPNFGAIPSSTNVGPETY-NH2
modifications: disulfide 2-7; N-terminus assumed
SMILES: CC[C@H](C)[C@H](NC(=O)[C@H](C)NC(=O)CNC(=O)[C@H](Cc1ccccc1)NC(=O)[C@H](CC(N)=O)NC(=O)[C@@H]1CCCN1C(=O)[C@H](CO)NC(=O)[C@H](CO)NC(=O)[C@H](Cc1c[nH]cn1)NC(=O)[C@H](CCCNC(=N)N)NC(=O)[C@H](CC(C)C)NC(=O)[C@H](Cc1ccccc1)NC(=O)[C@H](CO)NC(=O)[C@H](C)NC(=O)[C@H](CC(C)C)NC(=O)[C@H](CCCNC(=N)N)NC(=O)[C@H](CCC(N)=O)NC(=O)[C@@H](NC(=O)[C@H](C)NC(=O)[C@@H]1CSSC[C@H](NC(=O)[C@@H](N)CCCCNC(=O)CC[C@H](NC(=O)CC[C@H](NC(=O)CCCCCCCCCCCCCCCCCCC(=O)O)C(=O)O)C(=O)O)C(=O)N[C@@H](CC(N)=O)C(=O)N[C@@H]([C@@H](C)O)C(=O)N[C@@H](C)C(=O)N[C@@H]([C@@H](C)O)C(=O)N1)[C@@H](C)O)C(=O)N1CCC[C@H]1C(=O)N[C@@H](CO)C(=O)N[C@@H](CO)C(=O)N[C@H](C(=O)N[C@@H](CC(N)=O)C(=O)N[C@H](C(=O)NCC(=O)N1CCC[C@H]1C(=O)N[C@@H](CCC(=O)O)C(=O)N[C@H](C(=O)N[C@@H](Cc1ccc(O)cc1)C(N)=O)[C@@H](C)O)C(C)C)[C@@H](C)O
notes: also called compound 120
B5: N^ε1-[(4S)-4-carboxy-4-[[(4S)-4-carboxy-4-(19-carboxynonadecanoylamino)butanoyl]amino]butanoyl]-[Glu14,Arg17,Pro21,Pro27,Pro34,His35]-h-amylin (peptide)
peptide: K([γGlu-γGlu-C20 diacid])CNTATCATQRLAEFLRHSSPNFGAIPSSTNVGPHTY-NH2
modifications: disulfide 2-7 (inferred)
B6: N^ε1-[(4S)-4-carboxy-4-[[(4S)-4-carboxy-4-(19-carboxynonadecanoylamino)butanoyl]amino]butanoyl]-[Glu14,Arg17,Pro23,Pro34,Glu35]-h-amylin (peptide)
peptide: K([γGlu-γGlu-C20 diacid])CNTATCATQRLAEFLRHSSNNPGAILSSTNVGPETY-NH2
modifications: disulfide 2-7; N-terminus assumed
SMILES: CC[C@H](C)[C@H](NC(=O)[C@H](C)NC(=O)CNC(=O)[C@@H]1CCCN1C(=O)[C@H](CC(N)=O)NC(=O)[C@H](CC(N)=O)NC(=O)[C@H](CO)NC(=O)[C@H](CO)NC(=O)[C@H](Cc1c[nH]cn1)NC(=O)[C@H](CCCNC(=N)N)NC(=O)[C@H](CC(C)C)NC(=O)[C@H](Cc1ccccc1)NC(=O)[C@H](CCC(=O)O)NC(=O)[C@H](C)NC(=O)[C@H](CC(C)C)NC(=O)[C@H](CCCNC(=N)N)NC(=O)[C@H](CCC(N)=O)NC(=O)[C@@H](NC(=O)[C@H](C)NC(=O)[C@@H]1CSSC[C@H](NC(=O)[C@@H](N)CCCCNC(=O)CC[C@H](NC(=O)CC[C@H](NC(=O)CCCCCCCCCCCCCCCCCCC(=O)O)C(=O)O)C(=O)O)C(=O)N[C@@H](CC(N)=O)C(=O)N[C@@H]([C@@H](C)O)C(=O)N[C@@H](C)C(=O)N[C@@H]([C@@H](C)O)C(=O)N1)[C@@H](C)O)C(=O)N[C@@H](CC(C)C)C(=O)N[C@@H](CO)C(=O)N[C@@H](CO)C(=O)N[C@H](C(=O)N[C@@H](CC(N)=O)C(=O)N[C@H](C(=O)NCC(=O)N1CCC[C@H]1C(=O)N[C@@H](CCC(=O)O)C(=O)N[C@H](C(=O)N[C@@H](Cc1ccc(O)cc1)C(N)=O)[C@@H](C)O)C(C)C)[C@@H](C)O
B7: N^ε1-[(4S)-4-carboxy-4-[[(4S)-4-carboxy-4-(19-carboxynonadecanoylamino)butanoyl]amino]butanoyl]-[Glu14,Arg17,Pro21,Pro31,Pro34,Glu35]-h-amylin (peptide)
peptide: K([γGlu-γGlu-C20 diacid])CNTATCATQRLAEFLRHSSPNFGAILSSTPVGPETY-NH2
modifications: disulfide 2-7 (inferred)

Assays:
[1] = target: T1, human amylin receptor (amylin 3(a) …); experiment: SPA competition binding, displacement of 125I-rat amylin, membranes of BHK amylin 3(a)/CRE-luc cells
In short: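 Membranes from BHK Amylin 3(a)/CRE-luc cells (35 ng/μL final) were mixed with SPA beads and test compounds in 50 mM Hepes pH 7.4 with 1 mM CaCl2, 5 mM MgCl₂, 0.1% OA and 0.02% Tween20. Incubation ran 120 min at 25° C with shaking; IC₅₀ came from one-site competition fitting.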

[2] = target: T1, human amylin receptor (amylin 3(a) …); experiment: cell-based or functional assay
[3] = target: T2, human calcitonin receptor; experiment: cell-based or functional assay

Binder	IC50 [1] [nM]	Ratio hCT/hAmylin funct. [2]	hAmylin-R funct. EC50 (pM) [2] [pM]	hCTR funct. EC50 (pM) [3] [pM]
B1	0.275	24	198	4750
B2	0.344	6	222	1320
B3	0.121	–	225	2360
B4	0.076	8.1	109	887
B5	0.377	–	172	2830
B6	1.19	–	5170	89600
B7	0.069	5.8	222	1280
